Data published in patent US20170129961A1 (Amgen, published 2017).

T1: human CD70 (human, UniProt P32970 1-193)
T1 construct: also called hu CD70; CD27L
T1 sequence: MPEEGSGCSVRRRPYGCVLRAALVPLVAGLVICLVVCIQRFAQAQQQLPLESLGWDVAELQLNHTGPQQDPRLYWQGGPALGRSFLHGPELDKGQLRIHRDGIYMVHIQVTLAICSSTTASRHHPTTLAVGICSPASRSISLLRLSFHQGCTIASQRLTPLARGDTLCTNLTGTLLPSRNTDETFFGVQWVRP

T2: full-length mouse CD70 with C-terminal V5 tag (mouse, UniProt O55237 1-195)
T2 construct: On transfected CHO cells; also called murine CD70
T2 sequence: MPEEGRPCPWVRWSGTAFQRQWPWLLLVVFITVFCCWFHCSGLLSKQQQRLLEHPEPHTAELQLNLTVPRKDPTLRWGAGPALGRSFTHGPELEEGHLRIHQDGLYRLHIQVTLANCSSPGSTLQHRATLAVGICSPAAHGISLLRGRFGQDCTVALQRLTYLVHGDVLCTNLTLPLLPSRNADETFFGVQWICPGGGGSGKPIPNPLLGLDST


Legend:
human CD70 = target: T1, human CD70; experiment: FACS on CHO cells, periplasmic scFv
Protocol: (§1) All antibodies were diluted in PBS/1.5% FCS. As negative control, cells were incubated with PBS/2% FCS instead of the periplasmic extract. The samples were measured by flow cytometry.

[1] = target: T2, full-length mouse CD70 with C-terminal …; experiment: FACS on CHO cells, periplasmic scFv
Protocol: as §1

| Binder | binding result (human CD70) | binding result [1] |
| --- | --- | --- |
| CD70-57 (scFv) scFv: QVQLVESGGGVVQPGRSLRLSCAASGFTFSSYGMHWVRQAPGKGLEWVAVIWYDGSSEYYADSVKGRFTISRDNSKNTLYLQMNSLRAEDTAVYYCARDNSYNYYGMDVWGQGTTVTVSSGGGGSGGGGSGGGGSQSVLTQPPSVSGAPGQRVTISCTGSSSNIGAAYDVHWYQQFPGTAPKLLIYVNSHRPPGVPDRFSGSKSGTSASLAITGLQAEDEADYYCLSYDNSLSGSVFGGGTKLTVL | binds | no binding |
| CD70-20 (scFv, As m32) scFv: EVQLLESGGGLVQPGGSLRLSCAASGFTFSTYAMSWVRQAPGKGLEWVSLISGSGGRTYYADSVKGRFTISRDNSKNTLYLQMNSLRAEDTAVYYCAKHDYSNYPYFDYWGQGTLVTVSSGGGGSGGGGSGGGGSEIVLTQSPGTLSLSPGERATLSCRASQGVRSDYLAWYQQKPGQALRLLIYGASSRATGIPDRFSGSGSGTDFTLTISRLEPEDFAVYHCQQYGSTPPTFGGGTKLEIK | binds | no binding |
| CD70-58 (scFv) scFv: QVQLQESGPGLVKPSQTLSLTCTVSGGSISSSSYYWGWIRQPPGKGLEWIGSIYHSGGTYFNPSLKSRVTISVDTSKNQFSLKLSSVTAADTAVYYCARHYEILTGYYPDVFDIWGQGTMVTVSSGGGGSGGGGSGGGGSDIQMTQSPSSLSASVGDRVTITCRASQSISSYLNWYQQKPGKAPKLLIYAASNLQSGVSSRFSGSGSGTDFTLTISSLQPEDFATYYCQQSFSSPRTFGQGTKVEIK | binds | no binding |
| CD70-44 (scFv, As m32) scFv: EVQLLESGGGLVQPGGSLRLSCAASGFTFSSYAMSWVRQAPGKGLEWVSVISDSGGITDFADSVKGRFIISRDNSRNTLYLQMNSLRAEDTAVYFCARHDYSNYFFFDYWGQGTLVTVSSGGGGSGGGGSGGGGSDIQMTQSPSSLSASVGDRVTITCRASQDISNYLNWYQQKSGKAPELLIYAASSLQSGVPSRFSGSGSGTDFTLTISSLQPEDFATYYCQQSYISPPTFGQGTKVEIK | binds | no binding |
| CD70-67 (scFv, As m32) scFv: EVQLLESGGGLVQPGGSLRLSCAASGFTFSSYAMSWVRQAPGKCLEWVSVISDSGGITDFADSVKGRFIISRDNSRNTLYLQMNSLRAEDTAVYFCARHDYSNYFFFDYWGQGTLVTVSSGGGGSGGGGSGGGGSDIQMTQSPSSLSASVGDRVTITCRASQDISNYLNWYQQKSGKAPELLIYAASSLQSGVPSRFSGSGSGTDFTLTISSLQPEDFATYYCQQSYISPPTFGCGTKVEIK | binds | no binding |
| CD70-61 (scFv, As m32) scFv: EVQLLESGGGLVQPGGSLRLSCAASGFTFSSYAMSWVRQAPGKGLEWVSVISDSGGITDFADSVKGRFTISRDNSRNTLYLQMNSLRAEDTAVYFCARHDYSNYFFFDYWGQGTLVTVSSGGGGSGGGGSGGGGSDIQMTQSPSSLSASVGDRITITCRASQSISNYLNWYQQKPGKAPKLLISAASSLQSGVPSRFSGSGSGTDFTLTISSLQPEDFATYYCQQSYIIPPTFGQGTKVDIK | binds | no binding |
| CD70-29 (scFv, As m32) scFv: EVQLLESGGGLVQPGGSLRLSCAASGFNFASYAMSWVRQAPGKGLEWVSVISGSGGRTHYADSGKGRFTISRDNSKNTLYLQMNSLRAEDTAVYYCAKHDYSNYPYFDYWGQGTLVTVSSGGGGSGGGGSGGGGSEIVLTQSPGTLSLSPGERATLSCRASQSVRSSYLAWYQQKPGQAPRLLIFGASSRATGIPDRFSGSESGTDFTLTINRLEPEDFAVYYCEQYGNSPPTFGGGTKVEIK | binds | no binding |
| CD70-59 (scFv) scFv: QVQLQQWGAGLLKPSETLSLTCAVYDGSVSGFYWSWIRQPPGKGLEWIGEIDHSGSTNYNPSLKSRVTISVDTSKNQFSLKLSSVTAADSAVYYCARNGYSGYLFDYWGQGTLVTVSSGGGGSGGGGSGGGGSDIQMTQSPSSLSASVGDRVTITCRASQIISSYLNWYQQKPGKAPKVLIYGASSMQSGVPSRFSGSGYGTDFTLTISSLQPEDFATYYCQQSYSIPRTFGQGTKLEIK | binds | no binding |
| CD70-66 (scFv, As m32) scFv: EVQLLESGGGLVQPGGSLRLSCAASGFTFSSYAMSWVRQAPGQCLEWVSAISGSGGRTYYADSVKGRFTISRDNSKNTLYLQMNSLRAEDTAVYYCAKHDYSNYPYFDYWGQGTLVTVSSGGGGSGGGGSGGGGSEIVLTQSPGTLSLSPGERATLSCRASQSVRGSYLAWYQQKPGQAPRLLIYSASSRATGIPDRFSGSGSGTDFTLTISRLEPEDFAVYYCQQYGDSPFTFGCGTKVEIK | binds | no binding |
| CD70-74 (scFv, As m32) scFv: EVQLLESGGGLVQPGGSLRLSCAASGFTFSSYAMSWVRQAPGKGLEWVSAISGSGGSTFYADSVQGRFTISRDNSKNTLYLQVNSLRAEDTAVYYCARHDYSNYPYFDYWGQGTLVTVSSGGGGSGGGGSGGGGSEIVLTQSPGTLSLSPGERATLSCRASQSVRGNYLAWYQQKPGQAPRLLIYGASSRATGIPDRFSGSGSGTDFTLTISRLEPEDFAVYYCQQYGYSPFTFGPGTKVDIK | binds | no binding |
| CD70-33 (scFv, As m32) scFv: EVQLLESGGGLVQPGGSLRLSCAASGFTFSTYAMSWVRQAPGKGLEWVSTISDSGGSTFYADSVMGRFTISRDNSKNTLYLQMNSLRAEDTAVYYCARHDYSNYAFFDYWGQGTLVTVSSGGGGSGGGGSGGGGSEIVLTQSPATLSVSPGERATLSCRASQSVSSNLAWYQQKPGQAPRLLIYGASSRATGIPDRFSGSGSGTDFTLTISSLQAEDVAVYYCQQYYSTPFTFGPGTKVEIK | binds | no binding |
| CD70-34 (scFv, As m32) scFv: EVQLLESGGGLVQPGGSLRLSCAASGFTFSTYAMSWVRQAPGKGLEWVSTISDSGGSTFYADSVMGRFTISRDNSKNTLYLQMNSLRAEDTAVYYCARHDYSNYAFFDYWGQGTLVTVSSGGGGSGGGGSGGGGSEIVLTQSPATLSVSPGERATLSCRASQSVSSNLAWYQQKPGQAPRLLIYGASTRATGIPARFSGSGSGTEFTLAISRLEPEDFAVYYCQQYYSTPFTFGGGTKVEIK | binds | no binding |
| CD70-37 (scFv, As m32) scFv: EVQLLESGGGLVQPGGSLRLSCAASGFTFSSYAMSWVRQAPGKGLEWVSAIGDGGGYTYYADSVKGRFTISRDNSKNTLSLLMNSLRAEDTAVYYCARHDYSNYPYFDYWGQGTLVTVSSGGGGSGGGGSGGGGSEIVLTQSPGTLSLSPGERATLSCRASQGVRSSYFAWYQQKPGQAPRLLIYGASTRATGIPARFSGSGSGTDFTLTISRLEPEDFAVYYCQQYGSSPPTFGQGTKVEIK | binds | no binding |
| CD70-52 (scFv, As m32) scFv: QVQLQESGPGLVKPSETLSLTCTVSGGSVSTDGYYWSWIRQPPGKGLEWIGYIYYSGSTNYNPSLKSRVTISVDTSKNQFSLKLSSVTAADTAVYYCARGIGLGFEYWGQGTLVTVSSGGGGSGGGGSGGGGSSYVLTQLSSVSVAPGQTARITCGGNNIGSKSVHWYQQKPGQAPVLVVYDDSDRPSGIPERFSGSNSGNTATLTISRVEAGDEADYYCQVWDRSSDQDVVFGGGTKLTVL | binds | no binding |
| CD70-69 (scFv, As m32) scFv: QVQLQESGPGLVKPSETLSLTCTVSGGSVSTDGYYWSWIRQPPGKCLEWIGYIYYSGSTNYNPSLKSRVTISVDTSKNQFSLKLISVTAADTAVYYCARGIGLGFEYWGQGTLVTVSSGGGGSGGGGSGGGGSSYVLTQLSSVSVAPGQTARITCGGNNIGSKSVHWYQQKPGQAPVLVVYDDSDRPSGIPERFSGSNSGNTATLTISRVEAGDEADYYCQVWDRSSDQDVVFGCGTKLTVL | binds | no binding |
| CD70-51 (scFv, As m32) scFv: QVQLQESGPGLVKPSETLSLTCTVSGGSVSTDGYYWSWIRQPPGKGLEWIGYIYYSGSTNYNPSLKSRVTISVDTSKNQFSLKLSSVTAADTAVYYCARGIGLGFEYWGQGTLVTVSSGGGGSGGGGSGGGGSSYVLTQLTSVSVAPGQTARITCGGNNIGSKSVHWYQQKPGQAPVLVVYDDSDRPSGIPERFSGSNSGNTATLTISRVEAGDEADFYCQVWDRSSDQDVVFGGGTKLTVL | binds | no binding |
| CD70-48 (scFv, As m32) scFv: EVQLLESGGGLVQPGGSLRLSCAASGFTFSSYAMSWVRQAPGKGLEWVSVISDSGGITDFADSVKGRFTISRDNSRNTLYLQMNSLRAEDTAVYFCARHDYSNYFFFDYWGQGTLVTVSSGGGGSGGGGSGGGGSDIQMTQSPSSLSASVGDRVTITCRASQGISNYLAWYQQKPGKVPKLLIYAASILQSGVPSKFSGSGSGTDFTLTISSLQPEDFAIYYCQQYFAYPITFGQGTRLEIK | binds | no binding |
| CD70-68 (scFv, As m32) scFv: EVQLLESGGGLVQPGGSLRLSCAASGFTFSSYAMSWVRQAPGKCLEWVSVISDSGGITDFADSVKGRFTISRDNSRNTLYLQMNSLRAEDTAVYFCARHDYSNYFFFDYWGQGTLVTVSSGGGGSGGGGSGGGGSDIQMTQSPSSLSASVGDRVTITCRASQGISNYLAWYQQKPGKVPKLLIYAASILQSGVPSKFSGSGSGTDFTLTISSLQPEDFAIYYCQQYFAYPITFGCGTRLEIK | binds | no binding |
